Measured values taken from paper PMC4374696, “Protease Activity of PprI Facilitates DNA Damage Response: Mn(2+)-Dependence and Substrate Sequence-Specificity of the Proteolytic Reaction”.

T1: DdrO (Deinococcus radiodurans R1 (ATCC 13939)) (UniProt Q9RRB8)
T1 sequence: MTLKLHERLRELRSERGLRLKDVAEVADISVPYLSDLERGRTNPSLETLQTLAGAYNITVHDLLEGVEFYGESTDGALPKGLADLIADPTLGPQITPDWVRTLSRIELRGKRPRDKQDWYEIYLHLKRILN

T2: DdrO (Deinococcus radiodurans R1 (ATCC 13939), UniProt Q9RRB8 1-131)
T2 sequence: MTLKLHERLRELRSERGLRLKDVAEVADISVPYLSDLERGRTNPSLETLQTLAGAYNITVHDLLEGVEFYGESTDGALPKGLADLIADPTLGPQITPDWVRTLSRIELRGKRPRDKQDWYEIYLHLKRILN

B1: minimum DdrO binding sequence of PrecA (21 bp) (dsDNA)
DNA 1: TGTTATGCTGCTAGCAGAAAT
DNA 2: ATTTCTGCTAGCAGCATAACA

What follows are molecules tested against T1, DdrO (Deinococcus radiodurans R1 (ATCC 13939)) (assay: EMSA). Conditions: 150 mM NaCl, 20 mM Tris-HCl pH 8.0, 5 mM MgCl2, 1.6 uM DNA, 0-16 uM protein, 30 C; 12% TB-PAGE.

For “AACGCCAGTTGATTAAGGGGAAATGGAGAGGGGTTCGGGGCGGCCCCTGCCTGCTCTGTCGGCCAGCTTTCGGCAGAGTGGGCCCCGGCTCCGGCGCACTGACGCGGGCTAGACCCTCCCGCGCCGCCCTCCACCGCCGCCTCTACCTTCGTCCTATGCCCCG (double strand) [PddrA- (no RDRM)]”, which binding is on record?
Its binding is “no binding”.

Which binding does the source give for “AGAAACACCAGCATGATCGCAAGGTAGGCTGCTCCGCGCACTGGGGCGTCCGCCGAAAGGTGCAGCGCGCCTCACCTTCCCTTGACCCATCCCATTCAGGGCCGCACCCTGTAGACACTGGTTACGTCCTCCCATATACTCCGGTGAGGTTGTTATGCTGCTAGCAGAAATCATCAGTGTGGGCACG (double strand) [PrecA (recA promoter, RDRM)]” here?
Its binding is “binds”.

How did the binding turn out when “AGGAGCAGTTTCTTCATGAAGCCTCCAGATCAAAGGCGCACGAAGCAGGCCTGCCCCAAAGGAAGGCGGGCCTGCTGGGTTGCGTGACAGCCGGGACGTAAATAATGGCCCCAGGGTAGGGGCGGGCCGGGGGGGTGTCAAGGTACGCAGCGGGGGGCCTCCATGATTCTGCCCACAACGTAAACGCGCTATCCTGGGGAG (double strand) [PrecQ- (no RDRM)]” was run?
Its binding is “no binding”.

With “AGTTTAGAACAGAATAACATTACGGTCAAGACATAAAACGCCAGTTGATTAAGGGGAAATGGAGAGGGGTTCGGGGCGGCCCCTGCCTGCTCTGTCGGCCAGCTTTCGGCAGAGTGGGCCCCGGCTCCGGCGCACTGACGCGGGCTAGACCCTCCCGCGCCGCCCTCCACCGCCGCCTCTACCTTCGTCCTATGCCCCG (double strand) [PddrA]” as the molecule, how does the binding read?
The binding was “binds”.

How did the binding turn out when “CAACCTCACCGGAGTATATGGGAGGACGTAACCAGTGTCTACAGGGTGCGGCCCTGAATGGGATGGGTCAAGGGAAGGTGAGGCGCGCTGCACCTTTCGGCGGACGCCCCAGTGCGCGGAGCAGCCTACCTTGCGATCATGCTGGTGTTTCT (double strand) [PrecA- (no RDRM)]” was run?
Its binding is “no binding”.

With “CCCTTGCCATACTGCCTTTATTATGCCCTGAACAGATTAAAAAGGCCAGGGGTAGCACTCTGGCATAAGGAAAACCCAGCTTCGGCGGTCTTTGTGCCTTTGCCAGCTTTCACGGCGAAAGAAACGTCCAGATGACAGTGACACCCAAAGTGCACCCGGCGCCGTTCAGGGCACAGGTGCGGACTACAGTGGGGCCGTGAC (double strand) [PpprA]” as the molecule, how does the binding read?
Its binding is “binds”.

Which binding does the source give for “GCACTGCGGCTTGCAGCGCCGGGTGACCATGCCCAGCCTCCCTGCTCCAGCGCCCGCCCGCAAACCCGAGCGGCGGCTGTTCGGGCTCTTGCGAATCTGAAGGTCTTGGTGCCCGGCCTCTGCTGGGAGGCGGGACACTGGCACCGGCTTCCCCGATGTG (double strand) [PddrB- (no RDRM)]” here?
Its binding is “no binding”.

Which binding does the source give for “GCACTGCGGCTTGCAGCGCCGGGTGACCATGCCCAGCCTCCCTGCTCCAGCGCCCGCCCGCAAACCCGAGCGGCGGCTGTTCGGGCTCTTGCGAATCTGAAGGTCTTGGTGCCCGGCCTCTGCTGGGAGGCGGGACACTGGCACCGGCTTCCCCGATGTGTTATGTTATTTACGTAAGGAGGAGGCAGATGTTGCAGATT (double strand) [PddrB]” here?
Its binding is “binds”.

Which binding does the source give for “TAAAAAGGCCAGGGGTAGCACTCTGGCATAAGGAAAACCCAGCTTCGGCGGTCTTTGTGCCTTTGCCAGCTTTCACGGCGAAAGAAACGTCCAGATGACAGTGACACCCAAAGTGCACCCGGCGCCGTTCAGGGCACAGGTGCGGACTACAGTGGGGCCGTGAC (double strand) [PpprA- (no RDRM)]” here?
The binding was “no binding”.

With “TACTGCGGTCTGACGATGACCTCGTCCTTATCTGCGGGAGCCTCTATCTGCTCGGCGAACTGCGTCCTTTGCTGCTGGGCGAGCAGTCGGAAGGCCACGAACGCTGGCAATAGCCACAGCAGCGGCCAATTTCTGGTTTCGAAACAGGAATAAGGCAAGTTGACTGCCCTCA (double strand) [PddrO- (no RDRM)]” as the molecule, how does the binding read?
Its binding is “no binding”.

Which binding does the source give for “TACTGCGGTCTGACGATGACCTCGTCCTTATCTGCGGGAGCCTCTATCTGCTCGGCGAACTGCGTCCTTTGCTGCTGGGCGAGCAGTCGGAAGGCCACGAACGCTGGCAATAGCCACAGCAGCGGCCAATTTCTGGTTTCGAAACAGGAATAAGGCAAGTTGACTGCCCTCATTCTGTATTGACCGTAGCAAGGAGCGGTGTTACACT (double strand) [PddrO]” here?
The binding was “binds”.

“TAGTAACAAGCAGAGTCAATTATGTCAATGACATAAAAGGCTCAGGCCTTCTTGGTCTTCCACTCCGGGCGGTCCTTGACCACCAGGACGCGGCGGACGTTGTCGCGCAGGCGCAGGCTGCTGGCGATGGCGGTTTCGGGGTTGCCCGAAGCCTTGATGGTGTACATCAGGTAGTAGCCTTCGCGGTCCTTGCCCACCTGG (double strand) [PdrssB]” was tested. Which binding did it give?
Its binding is “binds”.

These molecules were tested against T2, DdrO (assay: EMSA; 150 mM NaCl, 20 mM Tris-HCl pH 8.0, 5 mM MgCl2, 1.6 uM DNA, 0-16 uM protein, 30 C; 12% TB-PAGE). Conditions: protein: recombinant; tags: 6xHis-MBP tag removed by TEV; chain copies: 2; blunt.

Does B1 bind?
Result: binds
